According to PMC8904041, “High-Level Production of Isoleucine and Fusel Alcohol by Expression of the Feedback Inhibition-Insensitive Threonine Deaminase in Saccharomyces cerevisiae” (Applied and Environmental Microbiology, 2022):

T1: threonine deaminase (Ilv1), wild-type (Saccharomyces cerevisiae, UniProt P00927)
T1 sequence (P00927 46-576): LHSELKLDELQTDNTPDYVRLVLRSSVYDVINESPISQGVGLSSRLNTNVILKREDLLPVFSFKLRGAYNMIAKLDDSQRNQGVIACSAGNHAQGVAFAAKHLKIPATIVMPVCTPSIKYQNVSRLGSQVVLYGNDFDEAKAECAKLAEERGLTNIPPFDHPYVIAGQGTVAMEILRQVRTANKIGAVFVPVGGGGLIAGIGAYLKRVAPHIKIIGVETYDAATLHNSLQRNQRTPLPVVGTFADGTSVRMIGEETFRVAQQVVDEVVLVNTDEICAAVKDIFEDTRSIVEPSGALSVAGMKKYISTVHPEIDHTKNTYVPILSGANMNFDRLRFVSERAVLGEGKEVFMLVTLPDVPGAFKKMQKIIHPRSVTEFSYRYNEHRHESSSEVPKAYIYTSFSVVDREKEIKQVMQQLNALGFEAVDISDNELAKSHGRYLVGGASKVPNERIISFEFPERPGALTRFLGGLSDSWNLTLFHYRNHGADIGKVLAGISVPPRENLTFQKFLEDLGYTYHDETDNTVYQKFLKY


Tests used:
[1] = molecular target: T1, threonine deaminase (Ilv1), wild-type; assay: GDH-coupled NADH oxidation assay of TD activity with purified recombinant Ilv1; assay type: biochemical
[2] = molecular target: T1, threonine deaminase (Ilv1), wild-type; assay: biochemical; details: read-out: GDH-coupled TD activity assay with purified Ilv1; 1.8-fold activation at 5 mM Va
purified protein = substrate: C[C@@H](O)[C@H](N)C(=O)O; assay: purified protein; assay type: biochemical, Saccharomyces cerevisiae; details: pyridoxal-5'-phosphate

| IC50 [1] | fold induction at 5000 µM [2] | Molecule | K0.5 (purified protein) | kcat (purified protein) | kcat/Km (purified protein) |
| --- | --- | --- | --- | --- | --- |
| 270 ± 9 µM | – | CC[C@H](C)[C@H](N)C(=O)O [isoleucine] | – | – | – |
| – | 1.8 | CC(C)[C@H](N)C(=O)O [valine] | – | – | – |
| – | – | threonine deaminase (Ilv1), wild-type (Saccharomyces cerevisiae S288C) (protein, recombinant Ilv1 lacking the N-terminal 45 amino acid residues (mitochondrial localization signal), expressed in E. coli BL21(DE3)) LHSELKLDELQTDNTPDYVRLVLRSSVYDVINESPISQGVGLSSRLNTNVILKREDLLPVFSFKLRGAYNMIAKLDDSQRNQGVIACSAGNHAQGVAFAAKHLKIPATIVMPVCTPSIKYQNVSRLGSQVVLYGNDFDEAKAECAKLAEERGLTNIPPFDHPYVIAGQGTVAMEILRQVRTANKIGAVFVPVGGGGLIAGIGAYLKRVAPHIKIIGVETYDAATLHNSLQRNQRTPLPVVGTFADGTSVRMIGEETFRVAQQVVDEVVLVNTDEICAAVKDIFEDTRSIVEPSGALSVAGMKKYISTVHPEIDHTKNTYVPILSGANMNFDRLRFVSERAVLGEGKEVFMLVTLPDVPGAFKKMQKIIHPRSVTEFSYRYNEHRHESSSEVPKAYIYTSFSVVDREKEIKQVMQQLNALGFEAVDISDNELAKSHGRYLVGGASKVPNERIISFEFPERPGALTRFLGGLSDSWNLTLFHYRNHGADIGKVLAGISVPPRENLTFQKFLEDLGYTYHDETDNTVYQKFLKY | 40 ± 2.2 mM | 75 ± 4.1 s⁻¹ | 1870 M⁻¹ s⁻¹ |
| – | – | threonine deaminase (Ilv1), H480Y variant (Saccharomyces cerevisiae S288C; H480Y) (protein, recombinant Ilv1 lacking the N-terminal 45 amino acid residues (mitochondrial localization signal), expressed in E. coli BL21(DE3)) LHSELKLDELQTDNTPDYVRLVLRSSVYDVINESPISQGVGLSSRLNTNVILKREDLLPVFSFKLRGAYNMIAKLDDSQRNQGVIACSAGNHAQGVAFAAKHLKIPATIVMPVCTPSIKYQNVSRLGSQVVLYGNDFDEAKAECAKLAEERGLTNIPPFDHPYVIAGQGTVAMEILRQVRTANKIGAVFVPVGGGGLIAGIGAYLKRVAPHIKIIGVETYDAATLHNSLQRNQRTPLPVVGTFADGTSVRMIGEETFRVAQQVVDEVVLVNTDEICAAVKDIFEDTRSIVEPSGALSVAGMKKYISTVHPEIDHTKNTYVPILSGANMNFDRLRFVSERAVLGEGKEVFMLVTLPDVPGAFKKMQKIIHPRSVTEFSYRYNEHRHESSSEVPKAYIYTSFSVVDREKEIKQVMQQLNALGFEAVDISDNELAKSYGRYLVGGASKVPNERIISFEFPERPGALTRFLGGLSDSWNLTLFHYRNHGADIGKVLAGISVPPRENLTFQKFLEDLGYTYHDETDNTVYQKFLKY | 42 ± 2.4 mM | 75 ± 3.6 s⁻¹ | 1780 M⁻¹ s⁻¹ |
